Data published in paper PMC2593702, “Purification, crystallization and X-ray structures of the two manganese superoxide dismutases from Caenorhabditis elegans” (Acta Crystallographica Section F, 2008).

Molecular target: the molecule itself
Test: SEC; gel-filtration chromatography of the pure proteins; Sephacryl S-200, 10 mM Tris-HCl pH 8.0, 0.15 M NaCl, 0.8 ml/min; results not shown

B1: Caenorhabditis elegans manganese superoxide dismutase MnSOD-2 (enzyme)
chain: MKHSLPDLPYDYADLEPVISHEIMQLHHQKHHATYVNNLNQIEEKLHEAVSKGNVKEAIALQPALKFNGGGHINHSIFWTNLAKDGGEPSAELLTAIKSDFGSLDNLQKQLSASTVAVQGSGWGWLGYCPKGKILKVATCANQDPLEATTGLVPLFGIDVWEHAYYLQYKNVRPDYVNAIWKIANWKNVSERFAKAQQ
notes: N-terminal methionine of the expression construct, retained in the purified protein by mass spectrometry; Superoxide dismutase [Mn]; Expressed without a histidine tag; Cloning is as in Hunter et al., 1997
  stoichiometry N: 4

B2: Caenorhabditis elegans manganese superoxide dismutase MnSOD-3 (enzyme)
chain: MKHTLPDLPFDYADLEPVISHEIMQLHHQKHHATYVNNLNQIEEKLHEAVSKGNLKEAIALQPALKFNGGGHINHSIFWTNLAKDGGEPSKELMDTIKRDFGSLDNLQKRLSDITIAVQGSGWGWLGYCKKDKILKIATCANQDPLEGMVPLFGIDVWEHAYYLQYKNVRPDYVHAIWKIANWKNISERFANARQ
notes: as for B1
  stoichiometry N: 4
